# In the Human Domainome abundance scans (Beltran et al. 2025):
# ± gives the uncertainty stated by the source.
# B1: Far upstream element-binding protein 2, residues 142 to 214; numbered along this chain, Q92945 (parent)
# chain: RTSMTEEYRVPDGMVGLIIGRGGEQINKIQQDSGCKVQISPDSGGLPERSVSLTGAPESVQKAKMMLDDIVSR
# Variants of: B1
# Experiment: abundance fitness (aPCA) (normalised: wild type 0, dead -1); higher = more abundant; growth selection in yeast, the domain comes from the species named
# Conditions: Homo sapiens
row,Variant,abundance fitness
1,RTSMTEEYRVPDGMVGLIIGRGMEQINKIQQDSGCKVQISPDSGGLPERSVSLTGAPESVQKAKMMLDDIVSR,-0.141 ± 0.07
2,RTSMTEEYRVPCGMVGLIIGRGGEQINKIQQDSGCKVQISPDSGGLPERSVSLTGAPESVQKAKMMLDDIVSR,-0.175 ± 0.071
3,RTSMTEEYRVPDGMVGLIIGRGGEQINKIQQDSGCKVQISPDSLGLPERSVSLTGAPESVQKAKMMLDDIVSR,-0.125 ± 0.048
4,RTSMTEEYRVPDGMVGLIIGRGGEQINKIQQDSGCKVQISPDSGGLKERSVSLTGAPESVQKAKMMLDDIVSR,-0.016 ± 0.069
5,RTSMTEEYRVPDGMVGLIIGRGGEQINKIQQDSGCRVQISPDSGGLPERSVSLTGAPESVQKAKMMLDDIVSR,-0.058 ± 0.04
6,RTSMTEEYRVPDGMVGLIIGRGGEQINKIQQDSGCLVQISPDSGGLPERSVSLTGAPESVQKAKMMLDDIVSR,-0.043 ± 0.047
7,RTSMTEEYRVPDGMVGLIIMRGGEQINKIQQDSGCKVQISPDSGGLPERSVSLTGAPESVQKAKMMLDDIVSR,-0.805 ± 0.087
8,RTSMTEEYRVPDGMVGLIIGRGGEQINKIAQDSGCKVQISPDSGGLPERSVSLTGAPESVQKAKMMLDDIVSR,-0.067 ± 0.042
9,RTSMTEEYRVPDGMVGLIIGRGGEQINKIQQDSGCKVQISPDSGGLPERSVSLTGAPEHVQKAKMMLDDIVSR,-0.081 ± 0.063
10,RTSMTEEYRVPDGMVGLIIGRGGEQINKIQQDSGCKVQISPDSGGLPERSVSLTGAPELVQKAKMMLDDIVSR,-0.619 ± 0.049
11,RTSMTEEYRVPDGMVGLIIGRGGEQINKIQQDSGCKVQISPDSGGLPERSVSLTGAPESVQKAKMFLDDIVSR,-0.383 ± 0.1
12,RTSMTEEYRVPDGMVGLIIGRGGEQINKIQQDSGCKVQISPDSGGLPERSVSLTGAPESVQKAKMTLDDIVSR,-0.661 ± 0.059
13,RTSMTEEYRVPDGMVGLIIGRGGEQINKIQQDSGCKVQISPDSGGLPERSVSLTGAPESVQKAKMKLDDIVSR,-0.462 ± 0.066
14,RTSMTEEYRVPDGMVGLIIGRGGEQINKIQQDLGCKVQISPDSGGLPERSVSLTGAPESVQKAKMMLDDIVSR,-0.575 ± 0.055
15,RTSMTEEYRVPDGMVGLIIGRGGEQINKIQQDSGCKVQISPDSGGLPERPVSLTGAPESVQKAKMMLDDIVSR,-0.159 ± 0.055
16,RTSMTEEYRVPDGMVGLIIGRGGEQINKIQQDSGCKVQISPDSGGLPERSVSDTGAPESVQKAKMMLDDIVSR,-0.72 ± 0.1
17,RTSMTEEYRVPDGMVGLIIGRGGEQINKIQQDSGCKCQISPDSGGLPERSVSLTGAPESVQKAKMMLDDIVSR,-0.144 ± 0.068
18,RTSMTEEYRVPDGMVGLIIGRGGEQINKIQQDSGCKEQISPDSGGLPERSVSLTGAPESVQKAKMMLDDIVSR,-0.704 ± 0.064
19,RTSMTEEYRVPDGMVGLIIGRGGEQINKIQQDSGCKVQISPDSGGLPKRSVSLTGAPESVQKAKMMLDDIVSR,-0.158 ± 0.071
20,RTSMTEEYRVPDGMVGLIDGRGGEQINKIQQDSGCKVQISPDSGGLPERSVSLTGAPESVQKAKMMLDDIVSR,-0.179 ± 0.076
21,RTSMTEEVRVPDGMVGLIIGRGGEQINKIQQDSGCKVQISPDSGGLPERSVSLTGAPESVQKAKMMLDDIVSR,-0.057 ± 0.038
22,RTSMTEEDRVPDGMVGLIIGRGGEQINKIQQDSGCKVQISPDSGGLPERSVSLTGAPESVQKAKMMLDDIVSR,-0.477 ± 0.057
23,RTSMTEEYRVPDGMVGLIIGRGGEQINKIQQDSRCKVQISPDSGGLPERSVSLTGAPESVQKAKMMLDDIVSR,-0.307 ± 0.043
24,RTSMTEEYRVPDGMVGLIIGRGGEQINKIQQDSGCKVQISPDSGGLPERSVSLTGAPESVQKAKMMLDDIVVR,-0.085 ± 0.045
25,RTSMTEEYRVPDGMVGLIIGRGGEQINKIQQDSGCKVQISPDSGGLPERSVSLTGAPESVQKAKMMLDDIVDR,-0.032 ± 0.061

row,Variant,abundance fitness
1,RTSMTEEYRVPDGMVGLIIGRGGEQINKIQQDSGCKVQISPDWGGLPERSVSLTGAPESVQKAKMMLDDIVSR,-0.212 ± 0.054
2,RTSMTEEYNVPDGMVGLIIGRGGEQINKIQQDSGCKVQISPDSGGLPERSVSLTGAPESVQKAKMMLDDIVSR,0.078 ± 0.076
3,RTSMTEEYPVPDGMVGLIIGRGGEQINKIQQDSGCKVQISPDSGGLPERSVSLTGAPESVQKAKMMLDDIVSR,0.041 ± 0.05
4,RTSMTEEYRVNDGMVGLIIGRGGEQINKIQQDSGCKVQISPDSGGLPERSVSLTGAPESVQKAKMMLDDIVSR,-0.371 ± 0.069
5,RTSMTEEYRVADGMVGLIIGRGGEQINKIQQDSGCKVQISPDSGGLPERSVSLTGAPESVQKAKMMLDDIVSR,-0.131 ± 0.047
6,RTSMTEEYRVPDGMVPLIIGRGGEQINKIQQDSGCKVQISPDSGGLPERSVSLTGAPESVQKAKMMLDDIVSR,-0.015 ± 0.046
7,RTSMTEEYRVPDGMVGLIIGRGGEQINPIQQDSGCKVQISPDSGGLPERSVSLTGAPESVQKAKMMLDDIVSR,-0.751 ± 0.069
8,RTSMTEEYRVPDGMVGLIIGRGGEQINKIQQDSGCKVQISYDSGGLPERSVSLTGAPESVQKAKMMLDDIVSR,-0.099 ± 0.092
9,RTSMTEEYRVPDGMVGLIIGRGGEQINKIQQKSGCKVQISPDSGGLPERSVSLTGAPESVQKAKMMLDDIVSR,-0.043 ± 0.084
10,RTSMTEEYRVPDGMVGLIIGRGGEQINKIQQTSGCKVQISPDSGGLPERSVSLTGAPESVQKAKMMLDDIVSR,-0.074 ± 0.061
11,RTSMTEEYRVPDGMVGLIIGRGGEQINKYQQDSGCKVQISPDSGGLPERSVSLTGAPESVQKAKMMLDDIVSR,-0.971 ± 0.11
12,RTSMTEEYRVPDGMVGLIIGRGGEQINKSQQDSGCKVQISPDSGGLPERSVSLTGAPESVQKAKMMLDDIVSR,-0.819 ± 0.056
13,KTSMTEEYRVPDGMVGLIIGRGGEQINKIQQDSGCKVQISPDSGGLPERSVSLTGAPESVQKAKMMLDDIVSR,0.166 ± 0.063
14,YTSMTEEYRVPDGMVGLIIGRGGEQINKIQQDSGCKVQISPDSGGLPERSVSLTGAPESVQKAKMMLDDIVSR,-0.195 ± 0.13
15,RTSMTEEYRVPDGMVGLIIGRGGEQINKIQQDSGCKVQISPDSGGLPERSVSLTGAPESVQKAKMMLQDIVSR,-0.116 ± 0.054
16,RTSMTEEYRYPDGMVGLIIGRGGEQINKIQQDSGCKVQISPDSGGLPERSVSLTGAPESVQKAKMMLDDIVSR,-0.224 ± 0.077
17,RTSMTEEYRVPDGMVGLIIGRGGEQINKIQQDSGCKVQISPDSGGLPERSVSLTGAPESVQKAKKMLDDIVSR,0.067 ± 0.059
18,RTSMTEEYRVPDGMVGLIIGRGGEQINKIQQDSGCKVQDSPDSGGLPERSVSLTGAPESVQKAKMMLDDIVSR,-0.515 ± 0.09
19,RTSMTEEYRVPDQMVGLIIGRGGEQINKIQQDSGCKVQISPDSGGLPERSVSLTGAPESVQKAKMMLDDIVSR,0.09 ± 0.051
20,RTSMTEEYRVPDGMVGLIIGRGGEQINKIQQDSGCKVQISPDSGGLPERSVSLTGAPESVQKADMMLDDIVSR,-0.567 ± 0.067
21,RTSMTEEYRVPDGMVGLIIGRGGEQINKIQQDSGCKVQISPDSGGLPERSVSLTGAPESVQKAEMMLDDIVSR,-0.653 ± 0.054
22,RTSMTEEYRVPDGMVGLIIGRGGEQINKIQQDSGCKVQISPDSGGLPERSVSLTGAPESVQKAAMMLDDIVSR,-0.558 ± 0.045
23,RTSMTEEYRVPDGMVGLIIGRGGEQINKIQYDSGCKVQISPDSGGLPERSVSLTGAPESVQKAKMMLDDIVSR,-0.166 ± 0.13
24,RTSMTEEYRVPDGMVGLIIGRGGEQINKIQFDSGCKVQISPDSGGLPERSVSLTGAPESVQKAKMMLDDIVSR,-0.105 ± 0.096
25,RTSMTEEYRVPDGMVGLIIGRGGEQINKIQQDSGCKVQISPDSGGLPERSVSLRGAPESVQKAKMMLDDIVSR,-0.256 ± 0.041

row,Variant,abundance fitness
1,RTSMTEEYRVPDGMVGLIIGRGGEQINKIQQDSGCKVQISPDSGGLPERSVSLQGAPESVQKAKMMLDDIVSR,-0.158 ± 0.06
2,RTSMTCEYRVPDGMVGLIIGRGGEQINKIQQDSGCKVQISPDSGGLPERSVSLTGAPESVQKAKMMLDDIVSR,0.051 ± 0.053
3,RTSMTWEYRVPDGMVGLIIGRGGEQINKIQQDSGCKVQISPDSGGLPERSVSLTGAPESVQKAKMMLDDIVSR,-0.086 ± 0.046
4,RTSMTEEYRVPDGMVGLIIGRGGEGINKIQQDSGCKVQISPDSGGLPERSVSLTGAPESVQKAKMMLDDIVSR,0.005 ± 0.037
5,RTSMTEEYRVPDGMVGLIIGRGGEQCNKIQQDSGCKVQISPDSGGLPERSVSLTGAPESVQKAKMMLDDIVSR,-0.524 ± 0.29
6,RTSMTEEYRVPDGMVGLIIGRGGEQINKIQQDSGCKVQISPDSGGLPERSVSLTGAPESVQKAKMMGDDIVSR,-0.602 ± 0.038
7,RTSMTEEYRVPDGMVGLIIGRGGEQINKIQQDSGCKVQISPDSGGLPERSVSLTGAPESVQKAKMMWDDIVSR,-1.06 ± 0.063
8,RTSMTEEYRVPDGMVGLIIGRGGEQINKIQQDSGCKVQISPDSGGLPERSVSLTGAEESVQKAKMMLDDIVSR,-0.259 ± 0.059
9,RTSMTEEYRVPDGMVGLIIGRGGEQINKIQQDSGCKVQISPDSGGLPERSVSLTGAYESVQKAKMMLDDIVSR,-0.402 ± 0.099
10,RTSMTEEYRVPDGMVGLIIGRGGEQINKIQQDSGCKVQISPDSGGLPERSVILTGAPESVQKAKMMLDDIVSR,0 ± 0.083
11,RTSMTEEYRVPDGMVGLIIGRGGEQINKIQQDSGCKVQISPDSGGLPERSVWLTGAPESVQKAKMMLDDIVSR,0.01 ± 0.05
12,RTSMTEEYRVPDGMVGLIIGRGGEQINKIQQDSGCKVQISPDSGGLPERSVFLTGAPESVQKAKMMLDDIVSR,0.007 ± 0.074
13,RTSMTEEYRVPDGMVGLIIGRGGEQINKIQQDSGCKVQISPDSGGLPERSVSLTGAPESGQKAKMMLDDIVSR,-0.745 ± 0.044
14,RTSMTEEYRVPDGMVGLIIGRGGEQINKIQQDSGCKVQISPDSGGLPERSVSLTGAPESLQKAKMMLDDIVSR,-0.191 ± 0.047
15,RTSMTEEYRVPDGMVGLIIGRGGEQINKIQQDSGCKVQISPDSGGLPERSVSLTGAPESVQKAKMMLDDVVSR,-0.059 ± 0.045
16,RTSMTEEYRVPDGMVGLIIGRGGEQINKIQQDSGCKVQISPDSGGLPERSVSLTGQPESVQKAKMMLDDIVSR,-0.1 ± 0.063
17,RTSMTEEYRVPDGMVGLIIGRGGEQINKIQQDSGCKVQISPLSGGLPERSVSLTGAPESVQKAKMMLDDIVSR,-0.232 ± 0.045
18,RTSMTEEYRVPDGMVGLIIGRGGEQINKIQQDSGCKVQISPMSGGLPERSVSLTGAPESVQKAKMMLDDIVSR,-0.15 ± 0.057
19,RTSMTEEYRVPDGMVGLIIGRGGEQINKIQQDSGCKVQISPDSGGLPERSVSLTGAPQSVQKAKMMLDDIVSR,-0.122 ± 0.059
20,RTSMTEEYRVPDGMVGLIIGRGGEQINKIQQDSGCKVQISPDSGGLPERSVSLTGAPVSVQKAKMMLDDIVSR,-0.209 ± 0.051
21,RTSMTEEYRVPDGMVGLIIGRGGEQINKIQQDSGCKVQISPDSGGLPERSVSLTGAPFSVQKAKMMLDDIVSR,-0.405 ± 0.11
22,RTSMTEEYRVPDGMVGLIIGRGGEQINKIQQDSGCKVQISPDSGGLPERSVSLTGAPSSVQKAKMMLDDIVSR,-0.102 ± 0.047
23,RTSMTEEYRVPDGMVGLIIGRGGEQINKIQQDSGCKVQISPDSGGLPERSVSLTGAPPSVQKAKMMLDDIVSR,-0.305 ± 0.052
24,RTSMTEEYRVPDGMVGLIIGRGGEQINKIQQDSGCKVQISPDSGGLPERSVSLTGAPESVQYAKMMLDDIVSR,-0.278 ± 0.098
25,RTSMTEEYRVPDGMVGLIIGRGGEQINKIQQDSGCKVQISPDSGGLPERSVSLTGAPESVQQAKMMLDDIVSR,-0.048 ± 0.052
